Biological target: hnRNP F/H (human (endogenous in 293))
Assay: co-IP; extracts of 293 cells expressing FLAG-SRSF10, RS1-FLAG, RS2-FLAG or RS1-ΔΔ-FLAG, lysed in NET-2 buffer (50 mM Tris-HCl pH 7.4, 150 mM NaCl, 0.05% NP-40), treated with RNase A; anti-hnRNP F, H or K antibodies on protein G magnetic beads, overnight at 4°C; blot with anti-FLAG; cells treated or not with oxaliplatin

FLAG-SRSF10, sequence (O75494 whole entry): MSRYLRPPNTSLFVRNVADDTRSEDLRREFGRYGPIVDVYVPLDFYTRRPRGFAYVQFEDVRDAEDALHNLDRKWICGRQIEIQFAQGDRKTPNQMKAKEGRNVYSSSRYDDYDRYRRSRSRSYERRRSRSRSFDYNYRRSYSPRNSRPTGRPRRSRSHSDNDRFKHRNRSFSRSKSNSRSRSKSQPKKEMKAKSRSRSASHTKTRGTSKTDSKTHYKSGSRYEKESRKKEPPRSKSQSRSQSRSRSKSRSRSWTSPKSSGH

percent of total SRSF10 associated: 0.5 to 1%
Substance: FLAG-SRSF10 (from UniProt O75494 1-262) (natural protein)
